Patent publication US20090202980

T1: fibrin peptide 85 (FP13), human fibrin α-chain fragment α148-160
T1 chain: KRLEVDIDIKIRS

T2: fibrin peptide 86 (FP12)
T2 chain: KRLEVDIDIKIR

T3: fibrin peptide 87 (FP10), non-amyloid fragment of human fibrin α-chain(148-157)
T3 chain: KRLEVDIDIK

T4: human IAPP amyloid core fragment (ΔhIAPP)
T4 chain: SNNFGAILSS

T5: human islet amyloid polypeptide, full length (fl-hIAPP)
T5 chain: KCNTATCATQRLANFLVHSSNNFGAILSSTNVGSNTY

T6: mouse non-amyloidogenic IAPP(20-29) core (ΔmIAPP)
T6 chain: SNNLGPVLPP

T7: recombinant human β2-glycoprotein I (expressed in insect cells), P02749
T7 chain: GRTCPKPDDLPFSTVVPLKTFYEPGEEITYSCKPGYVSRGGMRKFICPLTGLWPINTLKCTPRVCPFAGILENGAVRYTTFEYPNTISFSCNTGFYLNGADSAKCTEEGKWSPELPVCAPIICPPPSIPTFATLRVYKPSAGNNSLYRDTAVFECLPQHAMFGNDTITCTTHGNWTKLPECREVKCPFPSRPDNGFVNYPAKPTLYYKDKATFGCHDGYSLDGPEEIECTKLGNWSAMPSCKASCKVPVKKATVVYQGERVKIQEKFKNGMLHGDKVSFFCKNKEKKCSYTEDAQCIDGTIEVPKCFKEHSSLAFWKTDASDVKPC

T8: β2-glycoprotein I purified from fresh human plasma (in solution), P02749
T8 chain: T7 chain

T9: amyloid fragment of transthyretin (TTR11)
T9 chain: YTIAALLSPYS

T10: laminin α1-chain(2097-2108) amyloid core peptide (LAM12)
T10 chain: AASIKVAVSADR

B1: recombinant tissue-type plasminogen activator (tPA) (protein)
chain: SYQVICRDEKTQMIYQQHQSWLRPVLRSNRVEYCWCNSGRAQCHSVPVKSCSEPRCFNGGTCQQALYFSDFVCQCPEGFAGKCCEIDTRATCYEDQGISYRGTWSTAESGAECTNWNSSALAQKPYSGRRPDAIRLGLGNHNYCRNPDRDSKPWCYVFKAGKYSSEFCSTPACSEGNSDCYFGNGSAYRGTHSLTESGASCLPWNSMILIGKVYTAQNPSAQALGLGKHNYCRNPDGDAKPWCHVLKNRRLTWEYCDVPSCSTCGLRQYSQPQFRIKGGLFADIASHPWQAAIFAKHRRSPGERFLCGGILISSCWILSAAHCFQERFPPHHLTVILGRTYRVVPGEEEQKFEVEKYIVHKEFDDDTYDNDIALLQLKSDSSRCAQESSVVRTVCLPPADLQLPDWTECELSGYGKHEALSPFYSERLKEAHVRLYPSSRCTSQHLLNRTVTDNMLCAGDTRSGGPQANLHDACQGDSGGPLVCLNDGRMTLVGIISWGLGCGQKDVPGVYTKVTNYLDWIRDNMRP
B2: human factor XII (Hageman factor) (protein)
chain: IPPWEAPKEHKYKAEEHTVVLTVTGEPCHFPFQYHRQLYHKCTHKGRPGPQPWCATTPNFDQDQRWGYCLEPKKVKDHCSKHSPCQKGGTCVNMPSGPHCLCPQHLTGNHCQKEKCFEPQLLRFFHKNEIWYRTEQAAVARCQCKGPDAHCQRLASQACRTNPCLHGGRCLEVEGHRLCHCPVGYTGAFCDVDTKASCYDGRGLSYRGLARTTLSGAPCQPWASEATYRNVTAEQARNWGLGGHAFCRNPDNDIRPWCFVLNRDRLSWEYCDLAQCQTPTQAAPPTPVSPRLHVPLMPAQPAPPKPQPTTRTPPQSQTPGALPAKREQPPSLTRNGPLSCGQRLRKSLSSMTRVVGGLVALRGAHPYIAALYWGHSFCAGSLIAPCWVLTAAHCLQDRPAPEDLTVVLGQERRNHSCEPCQTLAVRSYRLHEAFSPVSYQHDLALLRLQEDADGSCALLSPYVQPVCLPSGAARPSETTLCQVAGWGHQFEGAEEYASFLQEAQVPFLSLERCSAPDVHGSSILPGMLCAGFLEGGTDACQGDSGGPLVCEDQAAERRLTLQGIISWGSGCGDRNKPGVYTDVAYYLAWIREHTVS

Legend:
[1] = molecular target: endostatin (precipitated, cross-β structure-containing)
[2] = molecular target: T1, fibrin peptide 85 (FP13), human fibrin …
[3] = molecular target: T2, fibrin peptide 86 (FP12)
[4] = molecular target: T3, fibrin peptide 87 (FP10), non-amyloid …
[5] = molecular target: T4, human IAPP amyloid core fragment …
[6] = molecular target: human amyloid-β peptide Aβ(1-40)
[7] = molecular target: T5, human islet amyloid polypeptide, full …
[8] = molecular target: T6, mouse non-amyloidogenic IAPP(20-29) …
[9] = molecular target: T7, recombinant human β2-glycoprotein I …
[10] = molecular target: T8, β2-glycoprotein I purified from fresh …
[11] = molecular target: Aβ(1-40) E22Q
[12] = molecular target: FP13 K157G
[13] = molecular target: T9, amyloid fragment of transthyretin …
[14] = molecular target: T10, laminin α1-chain(2097-2108) amyloid …

Row | Protein | tPA-mediated plasmin formation (plasminogen activation assay) [1] | tPA-mediated plasmin formation (plasminogen activation assay) [2] | tPA-mediated plasmin formation (plasminogen activation assay) [3] | tPA-mediated plasmin formation (plasminogen activation assay) [4] | tPA-mediated plasminogen activation [5] | activation of plasminogen by tPA (S-2251 conversion) [6] | tPA-mediated plasminogen activation [7] | tPA-mediated plasminogen activation [8] | tPA-mediated conversion of plasminogen to plasmin (S-2251 conversion) [9] | tPA-mediated conversion of plasminogen to plasmin (S-2251 conversion) [10] | auto-activation of factor XII (S-2222 conversion) [11] | auto-activation of factor XII (S-2222 conversion) [12] | factor XII activation (Chromozym PK conversion via kallikrein) [13] | factor XII activation (Chromozym PK conversion via kallikrein) [2] | factor XII activation (Chromozym PK conversion via kallikrein) [4] | factor XII activation (Chromozym PK conversion via kallikrein) [6] | factor XII activation (Chromozym PK conversion via kallikrein) [14] | factor XII activation (Chromozym PK conversion via kallikrein) [8]
1 | B1 | stimulating activity of cross-β structure-containing endostatin on tPA-mediated plasmin formation | peptides 85 and 86, both containing a cross-β structure, do stimulate the formation of plasmin by tPA | peptides 85 and 86, both containing a cross-β structure, do stimulate the formation of plasmin by tPA | peptide 87, which lacks a cross-β structure, does not | Both full-length (fl-hIAPP) and truncated amyloid core (Δ-hIAPP), but not mouse IAPP (Δ-mIAPP), stimulate tPA-mediated plasminogen activation | Aβ potently stimulates the activation of plasminogen by tPA | Both full-length (fl-hIAPP) and truncated amyloid core (Δ-hIAPP), but not mouse IAPP (Δ-mIAPP), stimulate tPA-mediated plasminogen activation | but not mouse IAPP (Δ-mIAPP) | Recombinant β2gpi and not β2gpi purified from fresh plasma, stimulates effectively the tPA-mediated conversion of plasminogen to plasmin | Recombinant β2gpi and not β2gpi purified from fresh plasma, stimulates effectively the tPA-mediated conversion of plasminogen to plasmin |  |  |  |  |  |  |  | 
2 | B2 |  |  |  |  |  |  |  |  |  |  | the potency of the Aβ(1-40) E22Q is somewhat lower | FP13 K157G and Hb-AGE have a potency to induce auto-activation that is similar to the established surface activator DXS500k | cross-β structure-rich peptides LAM12 and TTR11 stimulate factor XII activation, to a similar extent as kaolin | amyloid-like peptide aggregates of FP13 and Aβ stimulate the activation of factor XII | non-amyloid controls FP10 and mIAPP do not activate factor XII | amyloid-like peptide aggregates of FP13 and Aβ stimulate the activation of factor XII | cross-β structure-rich peptides LAM12 and TTR11 stimulate factor XII activation, to a similar extent as kaolin | non-amyloid controls FP10 and mIAPP do not activate factor XII
